In general, stoichiometry N refers to the number of molecules, sites or subunits per partner or assembly.

Series [1] concerns the molecule itself. In words: crystal structure.
Series [2] deals with T1, Cardif peptide (residues 138 to 158) used for cocrystallization with TRAF3.
T1 peptide: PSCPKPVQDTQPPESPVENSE
In words: crystal structure.

Series [3] addresses T2, TRAF domain of mouse TRAF3 (residues 376 through the C terminus), wild type (mouse, UniProt Q60803 376-567).
T2 sequence (looked up): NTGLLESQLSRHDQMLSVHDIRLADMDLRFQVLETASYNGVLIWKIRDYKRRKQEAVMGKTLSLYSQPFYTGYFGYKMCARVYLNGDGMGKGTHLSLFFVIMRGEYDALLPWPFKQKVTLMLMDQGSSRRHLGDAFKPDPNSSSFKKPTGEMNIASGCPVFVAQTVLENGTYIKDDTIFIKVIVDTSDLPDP
The series is described as follows: pull-down.

Series [4] concerns the molecule itself. The series is described as follows: crystal structure. This is another data set of the same source.

Like-named read-outs stand apart in the source and are kept apart here.

B1: recombinant TRAF domain of TRAF3 (residues 376 to 565), shortened by trypsin for crystallisation (domain or fragment, mouse, UniProt Q60803 376-565, looked up)
chain: NTGLLESQLSRHDQMLSVHDIRLADMDLRFQVLETASYNGVLIWKIRDYKRRKQEAVMGKTLSLYSQPFYTGYFGYKMCARVYLNGDGMGKGTHLSLFFVIMRGEYDALLPWPFKQKVTLMLMDQGSSRRHLGDAFKPDPNSSSFKKPTGEMNIASGCPVFVAQTVLENGTYIKDDTIFIKVIVDTSDLP
For the molecule B1, the “stoichiometry N” value in the series “crystal structure [1]” came out at 3; in series [2], 1.

As for PSCPKPVQDTQPPESP [GST-tagged Cardif peptide, residues 138 to 153 (encompasses T2BM)], in series [3], the binding result is on record as “binds”.

B2: TRAF domain of TRAF5, crystallised construct (residues 381 through the C-terminal end) (domain or fragment, mouse, UniProt P70191 381-558, looked up)
chain: NIHKAQLNKNEERFKQLEGACYSGKLIWKVTDYRVKKREAVEGHTVSVFSQPFYTSRCGYRLCARAYLNGDGSGKGTHLSLYFVVMRGEFDSLLQWPFRQRVTLMLLDQSGKKNHIVETFKADPNSSSFKRPDGEMNIASGCPRFVSHSTLENSKNTYIKDDTLFLKVAVDLTDLEDL
Take B2: in “crystal structure [4]”, the “stoichiometry N” value amounted to 3.

For the origin of these results see PMC4114212 (Science signaling, 2012).
